Measurements reported in patent publication US20100009907A1, “Glucagon-Like Peptides and Uses Thereof” (AMYLIN PHARMACEUTICALS, INC., priority 2006, published 2010).
Where no end group is shown, it is not given here.

T1: GLP-1 receptor (endogenous, RINm5F cell membranes; rat thyroid carcinoma 6-23 clone 6 cells) (rat, UniProt P32301 22-463)
T1 sequence (looked up): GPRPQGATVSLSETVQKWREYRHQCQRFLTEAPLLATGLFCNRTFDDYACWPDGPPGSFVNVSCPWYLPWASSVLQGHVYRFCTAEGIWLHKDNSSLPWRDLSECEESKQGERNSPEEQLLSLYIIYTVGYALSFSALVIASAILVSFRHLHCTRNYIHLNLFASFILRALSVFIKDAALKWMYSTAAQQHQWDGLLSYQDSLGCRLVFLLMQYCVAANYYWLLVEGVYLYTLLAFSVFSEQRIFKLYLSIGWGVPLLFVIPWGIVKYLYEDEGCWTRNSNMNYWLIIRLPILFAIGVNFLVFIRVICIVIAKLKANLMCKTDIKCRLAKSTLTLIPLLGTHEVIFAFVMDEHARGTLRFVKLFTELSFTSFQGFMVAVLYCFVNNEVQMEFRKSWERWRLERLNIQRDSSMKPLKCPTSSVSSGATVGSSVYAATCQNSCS


Tests used:
[1] = biological target: T1, GLP-1 receptor (endogenous, RINm5F cell …); experiment: cell-based or functional assay
[2] = biological target: endogenous GLP-1, calcitonin, and GIP receptors of RINm5f cells; experiment: cell-based or functional assay
[3] = biological target: T1, GLP-1 receptor (endogenous, RINm5F cell …); experiment: displacement of [125I]GLP-1 from RINm5F cell membranes (GLP RBA)
Description: GLP-1 receptor binding activity and affinity can be measured using a binding displacement assay in which the receptor source is RINm5F cell membranes, and the ligand is [¹²⁵I]GLP-1. Homogenized RINm5F cell membranes are incubated in 20 mM HEPES buffer with 40,000 cpm [¹²⁵I]GLP-1 tracer, and varying concentrations of test compound for 60 minutes at 23° C. with constant mixing. Reaction mixtures are filtered through glass filter pads presoaked with 0.3% PEI solution and rinsed with ice-cold phosphate buffered saline. Bound counts are determined using a scintillation counter. Binding affinities are calculated using GraphPad Prism software (GraphPad Software, Inc., San Diego, Calif.).

Binder	GLP-1 cAMP (6-23) EC50 [1] [nM]	GLP/GIP/CT cAMP(RIN) EC50 [2] [nM]	IC50 [3] [nM]
HAEGTFTSDVTQQLDEKAAKEFIDWLINGGPSKEIIS-OH (also called nmGLP-1 peptide; naturally occurring nmGLP-1) [SEQ ID NO 1]	7.7	1.9	
HAEGTFTSDVTQQLDEKAAKEFIDWLINGGASKEIIS (also called nmGLP-1 analog) [SEQ ID NO 12]		0.29	8.8
HAEGTFTSDVTQQLDEKAAKEFIDALINGGPSKEIIS (also called nmGLP-1 analog) [SEQ ID NO 13]		196	
HAEGTFTSDVTQQLDEKAAKEFIDWLINGGPSKEIIS (also called nmGLP-1 analog) [SEQ ID NO 11]		0.59	2.3
HAEGTFTSDVTQQLDEKAAKEFIDWLINPGSEGIKSI (also called nmGLP-1 analog) [SEQ ID NO 14]	2.2	18	
HAEGTYTNDVTEYLEEKAAKEFIEWLINGGPSKEIIS (also called nmGLP-1 analog) [SEQ ID NO 21]		1	2.1
HAEGTFTSDVTQQLEEKAAKEFIEWLIKGKPKKIRYS (also called nmGLP-1 analog) [SEQ ID NO 22]		0.1	0.067
HXEGTYTNDVTEYLEEKAAKEFIEWLIKGKPKKIRYS (here or on the partner: dAla at position 2 (a = dAla)) [SEQ ID NO 23]		0.22	
HAEGTYTNDVTEYLEEKAAKEFIEWLIN (also called nmGLP-1 analog) [SEQ ID NO 24]		0.85	1.3
HAEGTYTNDVTEYLEEKAAKEFIEWLIK (also called nmGLP-1 analog) [SEQ ID NO 25]		0.53	0.54
HAEGTYTNDVTEYLEEKAAKEFIEWLIKGKPKKIRYS (also called nmGLP-1 peptide; naturally occurring nmGLP-1) [SEQ ID NO 2]	0.82	0.36	
HGEGTYTNDVTEYLEEKAAKEFIEWLIKGKPKKIRYS (also called nmGLP-1 analog) [SEQ ID NO 26]	0.16	0.967	
HXEGTYTNDVTEYLEEKAAKEFIEWLIKGKPKKIRYS (here or on the partner: Aib (2-Aminoisobutyric acid) at position 2)		0.544	
HADGTYTSDVSSYLQDQAAKDFITWLKSGQPKPDAVET (also called nmGLP-1 peptide; naturally occurring nmGLP-1) [SEQ ID NO 48]	2.34	14	
HADGTYTSDVSSYLQDQAAKDFITWLKSGQPKPDAVETRSVDTL (also called nmGLP-1 peptide; naturally occurring nmGLP-1) [SEQ ID NO 49]		415	74
HAEGTYTNDVTQFLEEKAAKEFIDWLIKGKPKKQRLS [SEQ ID NO 50]		0.14	
YADAPYISDVYSYLQDQVAKKWLKSGQD (also called nmGLP-1 peptide; naturally occurring nmGLP-1) [SEQ ID NO 51]		971	111
HADGTFTNDMTSYLDAKAARDFVSWLARSDKS (also called nmGLP-1 peptide; naturally occurring nmGLP-1) [SEQ ID NO 52]		382	0.9
HXEGTYTNDVTQFLEEKAAKEFIDWLIKGKPKKQRLS (here or on the partner: Abu (2-Aminobutyric acid) at position 2)		0.146	
HXEGTYTNDVTQFLEEKAAKEFIDWLIKGKPKKQRLS (here or on the partner: dAla at position 2 (a = dAla)) [SEQ ID NO 54]		0.435	
HGEGTYTNDVTQFLEEKAAKEFIDWLIKGKPKKQRLS (also called nmGLP-1 analog) [SEQ ID NO 55]		0.576	0.05
HAEGTFTNDMTNYLEEKAAKEFVGWLIKGRS (also called nmGLP-1 analog) [SEQ ID NO 6]		1.23	
HAEGTFTSDVTQQLDEKAAKEFIDWLIN (also called nmGLP-1 analog) [SEQ ID NO 7]		4.7	
HXEGTFTSDVTQQLDEKAAKEFIDWLIN (here or on the partner: dAla at position 2 (a = dAla)) [SEQ ID NO 8]		19	

Binder	GLP-1 cAMP (6-23) EC50 [1] [nM]	GLP/GIP/CT cAMP(RIN) EC50 [2] [nM]	IC50 [3] [nM]
HAEGTFTSDVTQQLDEKAAKEFIDWLINGGPSSGAPPPS [SEQ ID NO 9]		0.28	
HXEGTFTSDVTQQLDEKAAKEFIDWLINGGPSKEIIS (here or on the partner: dAla at position 2 (a = dAla))		0.048	
HAEGTYTNDVTEYEEKAAKEFIEWLIKGKPKKIRYS (also called nmGLP-1 analog) [SEQ ID NO 38]	104		42
HAEGTYTNDVTEYLEKAAKEFIEWLIKGKPKKIRYS (also called nmGLP-1 analog) [SEQ ID NO 29]	930		91
HAEGTYTNDVTEYLEEAAKEFIEWLIKGKPKKIRYS (also called nmGLP-1 analog) [SEQ ID NO 30]	> 1000		537
HAEGTYTNDVTEYLEEKAAKFIEWLIKGKPKKIRYS (also called nmGLP-1 analog) [SEQ ID NO 31]	44		
HAEGTYTNDVTELEEKAAKEFIEWLIKGKPKKIRYS (also called nmGLP-1 analog) [SEQ ID NO 33]	145		81
HAEGTYTNDTEYLEEKAAKEFIEWLIKGKPKKIRYS (also called nmGLP-1 analog) [SEQ ID NO 39]	> 1000		61
HAEGTYTNDVTYLEEKAAKEFIEWLIKGKPKKIRYS (also called nmGLP-1 analog) [SEQ ID NO 41]	220		9
HAEGTYTNDVTEYLEEKAAKEFIEWLIPKKIRYS (also called nmGLP-1 analog) [SEQ ID NO 32]	8.3		
HAEGTYTNDVTEYLEEKAAKEFIEWLIGKPKKIRYS (also called nmGLP-1 analog) [SEQ ID NO 35]	0.172		
HAEGTYTNDVTEYLEEKAAKEFIEWLIKGPKKIRYS (also called nmGLP-1 analog) [SEQ ID NO 36]	0.086		
EGTYTNDVTEYLEEKAAKEFIEWLIKGKPKKIRYS (also called nmGLP-1 analog) [SEQ ID NO 37]	> 1000		
HAEGTYTNDVTEYLEEKAAKEFIEWLIKGKPK [SEQ ID NO 40]	0.12		
HAEGTYTNDVTEYLEEKAAKEFIEWLI [SEQ ID NO 42]	0.22		
HXEGTYTNDVTEYLEEKAAKEFIEWLI (dAla at position 2 (a = dAla)) [SEQ ID NO 43]	0.14		
HAEGTYTNDVTEYLEEKAAKEFIEWL [SEQ ID NO 44]	23		
HXEGTYTNDVTEYLEEKAAKEFIEWL (dAla at position 2 (a = dAla)) [SEQ ID NO 45]	34		
HAEGTYTNDVTEYLEEKAAKEFIEW [SEQ ID NO 46]	1940		
HXEGTYTNDVTQFLEEKAAKEFIDWLIKGKPKKQRLS (Abu (2-Aminobutyric acid) at position 2)	0.12		
HXEGTFTSDVTQQLDEKAAKEFIDWLINGGPSKEIIS (dAla at position 2 (a = dAla), also called nmGLP-1 analog)			1.9
HXEGTYTNDVTEYLEEKAAKEFIEWLIKGKPKKIRYS (Aib (2-Aminoisobutyric acid) at position 2, also called nmGLP-1 analog)			0.1
HXEGTYTNDVTEYLEEKAAKEFIEWLIKGKPKKIRYS (Abu (2-Aminobutyric acid) at position 2, also called nmGLP-1 analog) [SEQ ID NO 28]			0.067
